Data set [1] has as its system T1, human I-1 (S67D/T75D).
T1 sequence: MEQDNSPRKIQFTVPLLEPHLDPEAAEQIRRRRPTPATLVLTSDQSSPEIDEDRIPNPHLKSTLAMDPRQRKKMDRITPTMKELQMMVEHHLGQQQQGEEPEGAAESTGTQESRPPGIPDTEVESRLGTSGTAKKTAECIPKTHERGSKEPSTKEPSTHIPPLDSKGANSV

Data set [2] relates to human I-1 (S67A), unphosphorylated.
The subject of data set [3] is human I-1 (T75A), unphosphorylated.
Data set [4] relates to human phosphatase inhibitor-1 (I-1) wild type, dephosphorylated.
For data set [5], the system named is human I-1 (S67A/T75A).

The values that follow come from patent US20120053125.

Regarding “Protein Kinase A (PKA, cAMP-dependent protein kinase), Upstate Biotechnology”, in data set [1], the “32P incorporation upon PKA incubation, decrease against wild-type” value is “the double mutant incorporated 29% less radioactivity than the wild-type”.

On to “Protein Kinase C alpha (PKC-α), Upstate Biotechnology”, for which the “32P incorporated per protein at steady state (20-45 min), percent of wild type” value in data set [2] is recorded as “I-1 (S67A) incorporated 40±8.6% of the radioactivity levels present in wild types (100%)”. Besides, the “stoichiometry of phosphorylation at 45 min” value in data set [2] was “the incorporation of Pi into I-1(S67A) and I-1(T75A) were reduced to 0.35 and 0.30 mol Pi/mol protein, respectively”; in data set [3], “the incorporation of Pi into I-1(S67A) and I-1(T75A) were reduced to 0.35 and 0.30 mol Pi/mol protein, respectively”; in data set [4], “I-1 wild-type was phosphorylated by PKC-α for 45 min to a stoichiometry of 0.88 mol Pi/mol protein”. Besides, in data set [3], the “32P incorporated per protein at 45 min, percent of wild type” value is “I-1 (T75A) incorporated 33.8±12.7% of the levels in wild type (100%)”. The “32P incorporation upon PKC-α incubation” value in data set [5] was “mutation of both Ser-67 and Thr-75 to Ala abolishes ^32P-incorporation into I-1”.
